Results published in patent publication US20250295799A1 (Zymeworks, published 2025).

Key:
[1] = molecular target: T1, human glypican-3 (GPC3) (human, UniProt P51654 25-554); experiment: cell-based or functional assay
[2] = molecular target: T1, human glypican-3 (GPC3); experiment: cell-based or functional assay; remark: listed apart in the source
[3] = molecular target: T1, human glypican-3 (GPC3); experiment: flow cytometry on JHH-5 cells (GPC3-mid);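 note: antibody binding to cells at 4 °C for 24 h, detected with anti-human AF647 as geometric mean fluorescence of live cells versus antibody concentration, fitted by specific binding with Hill slope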
Method: (§1) Briefly, cells were seeded at 50,000 cells/well in V-bottom 96-well plates and treated with antibody for 24 hours at 4° C. to prevent internalization. […] Following incubation and washing, fluorescence was detected by flow cytometry on a BD LSRFortessa™ Cell Analyzer (BD Biosciences, Franklin Lake, NJ) with 1,000 minimum events collected per well. AF647/APC-A GeoMean (fluorescence signal geometric mean, proportional to anti-Human AF647 binding) in live cell population was plotted against antibody concentration using GraphPad Prism Version 9 (GraphPad Software, San Diego, CA). The Bmax, Curve Hill Slope (h) and Kd values were derived from the “Specific binding with Hill slope” nonlinear regression curve fit in GraphPad Prism Version 9.

[4] = molecular target: T1, human glypican-3 (GPC3); experiment: flow cytometry on JHH-7 cells (GPC3-high);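 note: antibody binding at 4 °C for 24 h, detected with anti-human AF647 secondary, geometric mean fluorescence of live cells versus antibody concentration, fitted as specific binding with Hill slope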
Method: as §1

[5] = molecular target: T1, human glypican-3 (GPC3); experiment: flow cytometry on CHO-S cells transfected with human GPC3;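 note: antibody binding to transiently transfected CHO-S cells after 24 hours at 4 °C, read as geometric mean fluorescence of anti-human AF647 in live cells, fitted against antibody concentration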
Method: (§2) Briefly, CHO—S cells were transiently transfected for −24 hours with a pTT5-based expression plasmid encoding human GPC3 or cynomolgus monkey GPC3, 0.5 μg DNA per 1 million cells, using the Neon™ Transfection System (Thermo Fisher Scientific Corp., Waltham, MA), to transiently express human or cynomolgus monkey GPC3. Cells transfected with GFP were used as negative transfection controls. Following transfection, cells were seeded at 50,000 cells/well in V-bottom 96-well plates and treated with antibody for 24 hours at 4° C. to prevent internalization. […] Following incubation and washing, fluorescence was detected by flow cytometry on a BD LSRFortessa™ Cell Analyzer (BD Biosciences, Franklin Lake, NJ) with 1,000 minimum events collected per well. AF647/APC-A GeoMean (fluorescence signal geometric mean, proportional to anti-Human AF647 binding) in live cell population was plotted against antibody concentration using GraphPad Prism Version 9 (GraphPad Software, San Diego, CA). The Bmax and Kd values were derived from the “Specific binding with Hill slope” nonlinear regression curve fit in GraphPad Prism Version 9.

[6] = molecular target: T2, cynomolgus monkey glypican-3 (GPC3) (cynomolgus monkey, UniProt A5A6P7 25-554 (Pan troglodytes entry)); experiment: flow cytometry on CHO-S cells transfected with cynomolgus GPC3;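 note: antibodies incubated 24 h at 4 °C with transiently transfected cells, binding read as AF647 geometric mean fluorescence of live cells, GFP-transfected cells as negative control, Hill-slope specific-binding fit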
T2 construct: Transiently expressed on CHO-S cells; also called cynoGPC3; CynoGPC3-CHO
Method: as §2

[7] = molecular target: T1, human glypican-3 (GPC3); experiment: flow cytometry on JHH-5 cells; antibody in mouse plasma, day 0
Method: (§3) For binding cells were seeded at 50,000 cells/well in V-bottom 96-well plates and treated with antibody for 24 hours at 4° C. to prevent internalization. […] Following incubation and washing, fluorescence was detected by flow cytometry on a BD LSRFortessa™ Cell Analyzer (BD Biosciences, Franklin Lake, NJ) with 1,000 minimum events collected per well. AF647/APC-A GeoMean (fluorescence signal geometric mean, proportional to anti-Human AF647 binding) in live cell population was plotted against antibody concentration using GraphPad Prism Version 9 (GraphPad Software, San Diego, CA). The Bmax, Curve Hill Slope (h) and Kd values were derived from the “Specific binding with Hill slope” nonlinear regression curve fit in GraphPad Prism Version 9.

[8] = molecular target: T1, human glypican-3 (GPC3); experiment: flow cytometry on JHH-7 cells; antibody in mouse plasma, day 0
Method: as §3

[9] = molecular target: T1, human glypican-3 (GPC3); experiment: flow cytometry on JHH-5 cells; antibody after 14 days in mouse plasma at 37 C
Method: as §3

[10] = molecular target: T1, human glypican-3 (GPC3); experiment: flow cytometry on JHH-7 cells; antibody after 14 days in mouse plasma at 37 C
Method: as §3

[11] = molecular target: T3, human GPC3 on cells (human, UniProt P51654 25-554); experiment: flow cytometry, HepG2 cells
T3 construct: GPI-anchored protein on transfected CHO-S cells, on human tumor cell lines or on HEK293T cells; the cell is named under assay; also called human GPC3 on CHO-S transfected cells; HuGPC3-CHO
Method: as §1

[12] = molecular target: T3, human GPC3 on cells; experiment: flow cytometry, JHH-7 cells
Method: as §1

[13] = molecular target: T3, human GPC3 on cells; experiment: flow cytometry, HepG2 cells; apparent Kd
Method: as §1

[14] = molecular target: T3, human GPC3 on cells; experiment: flow cytometry, JHH-7 cells; apparent Kd
Method: as §1

[15] = molecular target: KLH (Sigma-Aldrich, H8283); experiment: NS-ELISA, plate coated with KLH, antibody at 100 nM
Method: 50 μL each of insulin, KLH, dsDNA and ssDNA were added to a 96 well plate, followed by the incubation at 37° C. for 2 h. The coating materials were removed, and the plate was blocked with 200 μL of Gibco™ PBS pH7.4, 0.1% Tween®20, and incubated for 1 h at room temperature with shaking at 200 rpm. The plate was washed 3 times with Gibco™ PBS pH7.4, 0.1% Tween 20. 50 μL of each mAb at 100 nM (15 mg/mL) in Gibco™ PBS pH 7.4, 0.1% Tween®20 was added in duplicate to the wells and incubated for 1 h at room temperature with shaking at 200 rpm. Plates were washed three times with Gibco™ PBS pH7.4, 0.1% Tween 20, and 50 μL of 50 ng/mL anti-human IgG HRP (Thermofisher Scientific©, H₁₀₃₀₇) was added to each well. Plates were incubated for 1 h at room temperature, with shaking at 200 rpm. The plate was washed three times with Gibco™ PBS pH7.4, 0.1% Tween 20, and 100 μL of TMB substrate (Cell Signaling Technology©, 7004P6) added to each well. […] Binding scores were calculated as the ratio of the ELISA signal of the antibody to the signal of a well containing buffer instead of the primary antibody. The cutoffs considered for each binding molecule (ssDNA. KLH, Insulin, dsDNA and Heparin) were internally calculated.

[16] = molecular target: T4, recombinant human GPC3 (ACROBiosystems) (human, UniProt P51654 25-559); experiment: SPR, antibody captured on anti-Fc, GPC3 injected, 1:1 fit
T4 construct: bought antigen of the SPR assays, SEC purified; also called huGPC3; hGPC3
Method: (§4) Antigens: recombinant human and cynomolgus GPC3 was purchased from ACROBiosystems (Newark, DE) and SEC purified on a Superdex 200 10/300 GL column (Cytiva) in PBST running buffer at 0.8 mL/min.
(§5) Screening of the antibodies for binding to GPC3 antigen was conducted via anti-Fc capture of antibodies, followed by the injection of five concentrations of GPC3. The anti-Fc surface was prepared on a CM5 Series S sensor chip by standard amine coupling methods as described by the manufacturer (Cytiva Life Sciences, Mississauga, ON, Canada). […] Approximately 500-600 RUs of each antibody (1-3 μg/mL) were captured on the goat anti-human IgG surface by injecting at 10 μL/min for 60s. Using single-cycle kinetics, five concentrations of a two-fold dilution series of human or cynomolgus GPC3 starting at 40 nM (or 20 nM) with a blank buffer control were injected at 40 μL/min for 180s of contact time, followed by 180 s (or 300 s) dissociation phase, resulting in sensorgrams with a buffer blank reference. The anti-Fc surface was regenerated to prepare for the next injection cycle by one pulse of 10 mM glycine/HCl pH 1.5 for 180 s at 40 μL/min. Blank-subtracted sensorgrams were analyzed using Biacore™ T200 Evaluation Software v3.0. The blank-subtracted sensorgrams were then fit to the 1:1 Langmuir binding model.

[17] = molecular target: T5, recombinant cynomolgus GPC3 (ACROBiosystems) (cynomolgus monkey, UniProt A5A6P7 25-559 (Pan troglodytes entry), limits assumed); experiment: as above
T5 construct: bought antigen of the SPR assays; also called cynoGPC3
Method: as §4, §5

[18] = molecular target: T3, human GPC3 on cells; experiment: flow cytometry, CHO-S cells transfected with human GPC3; apparent Kd
Method: (§6) Briefly, CHO—S cells were transiently transfected for −24 hours with a pTT5-based expression plasmid encoding human GPC3 or cynomolgus monkey GPC3, 0.5 μg DNA per 1 million cells, using the Neon™ Transfection System (Thermo Fisher Scientific Corp., Waltham, MA), to transiently express human or cynomolgus monkey GPC3. Following transfection, cells were seeded at 50,000 cells/well in V-bottom 96-well plates and treated with antibody for 24 hours at 4° C. to prevent internalization. […] Following incubation and washing, fluorescence was detected by flow cytometry on a BD LSRFortessa™ Cell Analyzer (BD Biosciences, Franklin Lake, NJ) with 1,000 minimum events collected per well. AF647/APC-A GeoMean (fluorescence signal geometric mean, proportional to anti-Human AF647 binding) in live cell population was plotted against antibody concentration using GraphPad Prism Version 9 (GraphPad Software, San Diego, CA). The Bmax and Kd values were derived from the “Specific binding with Hill slope” nonlinear regression curve fit in GraphPad Prism Version 9.

[19] = molecular target: T6, cynomolgus monkey GPC3 on CHO-S transfected cells (cynomolgus monkey, UniProt A5A6P7 25-554 (Pan troglodytes entry)); experiment: flow cytometry, CHO-S cells transfected with cynomolgus monkey GPC3; apparent Kd
T6 construct: transient expression from a pTT5-based plasmid; also called CHO-S Cyno GPC3; CynoGPC3-CHO
Method: as §6

[20] = molecular target: T3, human GPC3 on cells; experiment: flow cytometry on HepG2 cells (GPC3-high), 24 h at 4 C, anti-human IgG Fc AF647
Method: as §1

[21] = molecular target: T3, human GPC3 on cells; experiment: flow cytometry on JHH-7 cells (GPC3-high), 24 h at 4 C, anti-human IgG Fc AF647
Method: as §1

[22] = molecular target: T3, human GPC3 on cells; experiment: flow cytometry on JHH-5 cells (GPC3-mid), 24 h at 4 C, anti-human IgG Fc AF647
Method: Cell lines investigated included GPC3-hi HepG2 and JHH-7 cells, GPC3-mid JHH-5 cells, as well as GPC3-negative SNU-601 cells.
as §1

Binder	JHH-5 Internalization (MFI) [1]	JHH-7 Internalization (MFI) [1]	JHH-5 Internalization (MFI), Day 0 in mouse plasma [2]	JHH-5 Internalization (MFI), Day 14 in mouse plasma [2]	JHH-7 Internalization (MFI), Day 0 in mouse plasma [2]	JHH-7 Internalization (MFI), Day 14 in mouse plasma [2]	Bmax (MFI) [3]	Kd [3]	Bmax (MFI) [4]	Kd [4]	Bmax (MFI) [5]	Kd [5]	Bmax (MFI) [6]	Kd [6]	Bmax (MFI) [7]	Kd [7]	Bmax (MFI) [8]	Kd [8]	Bmax (MFI) [9]	Kd [9]	other results
H18L6_LC_G34Q mAb, v40208 (antibody, human IgG1, kappa, V domains shown, Full-size IgG1/kappa) VH: QVQLVQSGAEVKKPGSSVKVSCKASGYTFTDYEMHWVKQAPGHGLEWIGAIDPETGDTAYNQKFKGKATLTADTSTSTAYMELSSLRSEDTAVYYCTRYFSFAYWGQGTLVTVSS VL: EIVLTQSPATLSLSPGERATISCRSSQSLRHSNQNTYLQWYQQKPGQAPRLLIYKVSNRFSGVPARFSGSGSGTDFTLTISSLEPEDFAVYFCYQSKHVPYTFGGGTKVEIKR	9510 MFI	8920 MFI	10500 MFI	9980 MFI	131 MFI	106 MFI	4360 MFI	0.16 nM	11600 MFI	0.44 nM	2280 MFI	0.11 nM	2820 MFI	0.15 nM	4730 MFI	0.11 nM	8910 MFI	0.32 nM	5640 MFI	0.15 nM	Bmax (MFI) [10]: 11000 MFI; Kd [10]: 0.23 nM
H18L6_LC_G34R mAb, v40206 (antibody, human IgG1, kappa, V domains shown, Full-size IgG1/kappa) VH: QVQLVQSGAEVKKPGSSVKVSCKASGYTFTDYEMHWVKQAPGHGLEWIGAIDPETGDTAYNQKFKGKATLTADTSTSTAYMELSSLRSEDTAVYYCTRYFSFAYWGQGTLVTVSS VL: EIVLTQSPATLSLSPGERATISCRSSQSLRHSNRNTYLQWYQQKPGQAPRLLIYKVSNRFSGVPARFSGSGSGTDFTLTISSLEPEDFAVYFCYQSKHVPYTFGGGTKVEIKR	10700 MFI	9240 MFI	13300 MFI	11100 MFI	144 MFI	115 MFI	4910 MFI	0.19 nM	12500 MFI	0.34 nM	2450 MFI	0.1 nM	2850 MFI	0.13 nM	5450 MFI	0.07 nM	9390 MFI	0.15 nM	5320 MFI	0.21 nM	Bmax (MFI) [10]: 9710 MFI; Kd [10]: 0.39 nM
v37574 (M3-H18L6) (antibody, human IgG1, kappa, humanized full-size IgG1 (IGHG1*01)/kappa antibody without heavy chain C-terminal lysine) heavy: not shown light: EIVLTQSPATLSLSPGERATISCRSSQSLRHSNGNTYLQWYQQKPGQAPRLLIYKVSNRFSGVPARFSGSGSGTDFTLTISSLEPEDFAVYFCYQSKHVPYTFGGGTKVEIKRTVAAPSVFIFPPSDEQLKSGTASVVCLLNNFYPREAKVQWKVDNALQSGNSQESVTEQDSKDSTYSLSSTLTLSKADYEKHKVYACEVTHQGLSSPVTKSFNRGEC																					Bmax [11]: 33900; Bmax [12]: 8520; Kd [13]: 1.1 nM; Kd [14]: 0.22 nM; NS-ELISA binding score [15]: 0.91 ratio to buffer well; Kd [16]: 11.1 nM; Kd [17]: 11.1 nM; Kd [18]: 0.53 nM; Kd [19]: 0.38 nM; EC50 (read off the curve) [20]: ~0.7 nM; EC50 (read off the curve) [21]: ~0.2 nM; EC50 (read off the curve) [22]: ~0.2 nM
